Data reported in patent US9428783B2, “DNA encoding dipeptide-synthesizing enzyme (variants), bacterium belonging to the genus Escherichia, and methods for producing dipeptides using thereof” (Ajinomoto Co., Inc., priority 2012, dated 2016).

B1: DES: pyridoxal-phosphate dependent enzyme from Desmospora sp. 8437, SEQ ID NO: 6; tested as MBP fused His6-tagged DES (protein)
chain: MKKKLLFVEGNTTGTGILALEKARKLGYEPVFLTQEASRYDGLPEAKCRVHVTVTDSIHELKRCVSQEKAEAVAGILTTSDYYLEISAKLVQELGLTGNSPQAIHLCRNKALYREKLRSKSVPQPNFHIIRSMEDLRETRESVPLPCLVKPADDSGSNNVRLCFSWGEVEQLTSKILKIERNARGQKTSQTVLLEEYIEGPEYSVEMFSWQGKSTCIGITEKQLTGYPYFVESGHVFPAVLPTDVQQEIEKTVKQSLEAVHFQFGASHSEVKWTPNGCVMIETNARLAGGMIPELVRHSTGVDLIEQQILCAAGVAPHWKQVVPTGCSGIHFIVAAEAGRLSSVDNLEAVRKLPGVEEMMVKAQVGQAVQPPKNFSDRLGHVIVSGKSYEEVVERLHKISNMISLKIS
modifications: MBP fusion, His6 tag; Desmospora sp. 8437
B2: BBR47_51900: L-amino acid α-ligase (hypothetical protein) from Brevibacillus brevis NBRC 100599, SEQ ID NO: 2 (protein)
chain: MNKHFLFVEANTTGTGMLAMKKARKLGFTPVFFTEKPERYHGLNELECHVVVTDTNSQAELTDSVAQVSKEGREIAGIMSTSDYYLESVAKLARKFGWISNSLEAIEACRNKAIFREKLQRHQVSQPTFLAISSMEQLLEARSSISLPCVVKPADDSGSNNVRLCFSWDEVEHMAAEILAIKYNARGQETARTVLLEQYAEGPEFSVETFSWQGQCFVIGITQKRLTGYPFFVEAGHIFPAPLSVEEKQEIERTVERALAAVKYQFGAAHTEVKWTSAGCVVIEVNARLAGGMIPELVRRSTGIDLLLQQIRCAAGLEPELSQTIEEQRCAGIHFLVSESQGTFGGIKGMDTVRNLPGIAEVAIHAKIGQNVQPPQNFSHRLGYVIVEGKHYSETAELIEQVKDSLSVQVGQQLESGV
modifications: Brevibacillus brevis NBRC 100599

Experiments:
Format in all cases: biochemical
[1] = Asp-Phe synthesizing activity of MBP fused His6-tagged DES; details: 160 μg DES, 100 mM L-Asp, 100 mM L-Phe, 10 mM ATP, pH 9.0, 37° C., 15 hours
Protocol: Dipeptides synthesized by MBP fused His6-tagged DES were determined using HPLC analysis of reaction mixture of total volume of 400 μL, which contained:
Reactions were carried out at 37° C. for 15 hours. Then the reaction mixture, into which 10 μl of 1 M EDTA, pH9.0 was added to stop the enzymatic reaction, was subjected to HPLC analysis. The conditions were as described in Example 4. As a result, DES catalyzes formation of 0.30 mM Asp-Phe.

[2] = Preliminary analysis of substrate specificity by TLC; details: 4 μg enzyme, 10 mM each amino acid, 10 mM ATP, pH 8.0, 32° C., 15 hours
Description: The substrate specificity of BBR47_51900 and Staur_4851 was studied in the reaction mixture containing the enzyme and canonical L-amino acids such as L-alanine, L-arginine, L-asparagine, L-aspartic acid, L-cysteine, glycine, L-glutamic acid, L-glutamine, L-histidine, L-isoleucine, L-leucine, L-lysine, L-methionine, L-phenylalanine, L-proline, L-serine, L-threonine, L-tryptophan, L-tyrosine, and L-valine, or salts thereof, of the same or two different kinds. The composition of the reaction mixture of total volume of 50 μL was as follows unless otherwise noted:
Reactions were carried out at 32° C. for 15 hours. 1-2 μL of reaction mixture was subjected to thin layer chromatography (TLC) analysis using as mobile phase the mixture of 2-propanol:acetone:250 mM ammonia:H2O as 100:100:12:28. […] Detection was performed at 540 nm. The new spots on TLC-plates were detected after developing the reaction mixtures, which contained: […]

[3] = HPLC determination of dipeptides synthesized by the enzymes; details: 160 μg enzyme, 10 mM substrates, 10 mM ATP, pH 9.0, 32° C., 15 hours
Protocol: Dipeptides synthesized by BBR47_51900 and Staur_4851 were determined using HPLC analysis of reaction mixtures of total volume of 400 μL, which contained:
Reactions were carried out at 32° C. for 15 hours. Then […] of reaction mixture was filtered through the Amicon Ultra-0.5 mL, 3K Centrifugal Filters (Millipore, #UFC500396) and subjected to HPLC analysis.
The conditions were as follows: • Equipment: HITACHI L-2000 series. • Column: Inertsil ODS-3 4.6×250 mm, […] (GL Sciences Inc.). • Temperature: 40° C. • Buffers:
A (for mixture L-Asp/L-Val and L-Glu/L-Val): 0.1 M KH2PO4 (pH 2.2)+5 mM octanesulfonate, sodium salt: CH3CN as 4:1 (v/v),
B (for mixture L-Asp/L-Phe): 0.1 M KH2PO4 (pH 2.2)+5 mM octanesulfonate, sodium salt: CH3CN as 7:3 (v/v),
C (for mixture L-Asp/L-PheOMe, L-Asp/L-Trp, and L-Val/L-Val): 0.1 M KH2PO4 (pH 2.2)+5 mM octanesulfonate, sodium salt:CH3CN as 3:2 (v/v),
D (for mixture L-Phe/L-Phe): 0.1 M KH2PO4 (pH 2.2)+5 mM octanesulfonate, sodium salt: CH3CN as 1:1 (v/v). • Gradient profile: isocratic. • Flow rate: 1.5 mL/min. • Injection volume: 10 μL. • Detection: UV 210 nm.
Solution of αGlu-Val, γGlu-Val, αAsp-Val (10 mM each) and αAsp-Phe, βAsp-Phe (5 mM each) were prepared for HPLC analysis. The concentration of a dipeptide formed was determined using corresponding calibration curves. Each solution with standard sample was diluted to 50-folds or 100-folds for LC-QTOF/MS/MS analysis (Example 5).

[4] = LC-QTOF/MS/MS determination of dipeptides synthesized; details: reaction mixtures of Example 4
Description: Samples of reaction mixtures and standard solutions obtained as described in Example 4 were subjected to LC-QTOF/MS/MS analysis.
The conditions were as follows:
Equipment: LC (Agilent1200SL), MS (Micromass Q-TOF Premier)
Column: Develosil C30 2.0×250 mm, 3 μm (Nomura Chemical).
Buffers: • A: H2O (0.025% Formic acid), • B: CH3CN (0.025% Formic acid).

[5] = Enzymatic production of Asp-Phe using ATP regeneration system; details: 0.15 U enzyme, 100 mM L-AspNa, 100 mM L-Phe, 37° C.
Protocol: The product yield of Asp-Phe was studied in the reaction mixture of BBR47_51900 and Staur_4851 containing phosphoenolpyruvate and pyruvate kinase for regeneration of ATP in order to prevent highly concentrated ATP from inhibiting the enzyme reaction. The composition of the reaction mixture of total volume of 1 ml was as follows.
Reactions were carried out at 37° C. for 1-48 hours. 100 μL out of the 1 mL reaction mixture was sampled at each reaction time. Each reaction mixture, into which 10 μL of 1 M EDTA (pH9.0) was added to stop the reaction, was subjected to HPLC analysis. The condition was as described in Example 4. As a result, BBR47_51900 and Staur_4851 could produce Asp-Phe in the ATP regeneration system (Table 9).

Molecule	Asp-Phe formed [1] [mM]	L-amino acid pairs giving new spots on TLC-plates (ligation) [2]	Dipeptides (mM) Asp-Phe [3] [mM]	Dipeptides (mM) Asp-PheOMe [3] [mM]	Dipeptides (mM) Asp-Trp [3] [mM]	Dipeptides (mM) Asp-Val [3] [mM]	Dipeptides (mM) Glu-Val [3] [mM]	Dipeptides whose formation is catalyzed (LC-QTOF/MS/MS) [4]	Asp-Phe ([5]; 1 hr) [mM]	Asp-Phe ([5]; 2 hr) [mM]	Asp-Phe ([5]; 4 hr) [mM]	Asp-Phe ([5]; 8 hr) [mM]	Asp-Phe ([5]; 24 hr) [mM]	Asp-Phe ([5]; 48 hr) [mM]
B1	0.30													
B2		L-Glu/L-Glu, or L-Glu/L-Asp, or L-Glu/L-Val, or L-Glu/L-Ile, or L-Asp/L-Ile, or L-Asp/L-Val	1.22	0.03	0.13	3.9	1.48	αAsp-Phe, αAsp-Val, and αGlu-Val	7	13	24	40	68	74
